Reference: patent US20040203128

What was measured:
[1] = tested on: GST-2E11 recombinant protein (fusion between a KCNQ2-15b polypeptide comprising exons 13, 14 and 15b and GST)
[2] = tested on: GST protein (negative control, from pGEX2TK) [GST: P08515]
Sequence of GST protein (negative control, from pGEX2TK) [GST: P08515] (P08515 whole entry): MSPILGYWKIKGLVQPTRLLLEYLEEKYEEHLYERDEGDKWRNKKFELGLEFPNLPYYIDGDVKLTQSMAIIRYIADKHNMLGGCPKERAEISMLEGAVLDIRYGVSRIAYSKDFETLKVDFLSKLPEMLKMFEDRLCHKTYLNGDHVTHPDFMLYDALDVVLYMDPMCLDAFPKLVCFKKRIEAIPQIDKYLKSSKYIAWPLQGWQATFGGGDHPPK

Sequence of GST-2E11 recombinant protein (fusion between a KCNQ2-15b polypeptide comprising exons 13, 14 and 15b and GST) (chain, as listed by the source): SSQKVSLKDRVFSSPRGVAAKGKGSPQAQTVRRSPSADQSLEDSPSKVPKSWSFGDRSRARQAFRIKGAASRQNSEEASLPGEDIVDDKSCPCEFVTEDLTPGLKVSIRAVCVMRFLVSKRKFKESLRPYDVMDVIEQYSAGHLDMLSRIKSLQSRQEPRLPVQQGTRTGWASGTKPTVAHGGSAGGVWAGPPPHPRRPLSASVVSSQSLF

Row | Substance | in vitro dephosphorylation, loss of the 32P band, with or without okadaic acid [1] | in vitro phosphorylation, 32P autoradiography after SDS-PAGE [2] | in vitro phosphorylation, 32P autoradiography after SDS-PAGE [1]
1 | PP2A phosphatase in whole cell extracts of the human glioblastoma, astrocytoma cell line HTB-14 | In the line loaded with GST-2E11 fusion proteins incubated in the presence of HTB-14 cell extracts, the band had an extremely weaker intensity |  | 
2 | recombinant GSK-3β kinase (New England Biolabs) |  | No bands appeared in the three lines corresponding to the negative controls | Thus the GST-2E11 protein is phosphorylated by GSK-3β and PKA in vitro
3 | Protein Kinase A Catalytic Subunit (PKA from bovine heart, Sigma) |  | No bands appeared in the three lines corresponding to the negative controls | Thus the GST-2E11 protein is phosphorylated by GSK-3β and PKA in vitro
